Test results published in patent publication US9744188B2, “Methods of promoting neuronal outgrowth by gypican 2 that binds to receptor protein tyrosine phosphatase sigma” (PRESIDENT AND FELLOWS OF HARVARD COLLEGE, priority 2011, dated 2017).
Entries after “also recorded” stand apart in the source; their conditions may differ.

T1: mouse RPTPσ sEcto-Fc (Mus musculus, UniProt B0V2N1)
T1 construct: made in house; host or cells: transiently transfected 293T cells
T1 sequence (B0V2N1 30-851 isoform B0V2N1-3 limits assumed): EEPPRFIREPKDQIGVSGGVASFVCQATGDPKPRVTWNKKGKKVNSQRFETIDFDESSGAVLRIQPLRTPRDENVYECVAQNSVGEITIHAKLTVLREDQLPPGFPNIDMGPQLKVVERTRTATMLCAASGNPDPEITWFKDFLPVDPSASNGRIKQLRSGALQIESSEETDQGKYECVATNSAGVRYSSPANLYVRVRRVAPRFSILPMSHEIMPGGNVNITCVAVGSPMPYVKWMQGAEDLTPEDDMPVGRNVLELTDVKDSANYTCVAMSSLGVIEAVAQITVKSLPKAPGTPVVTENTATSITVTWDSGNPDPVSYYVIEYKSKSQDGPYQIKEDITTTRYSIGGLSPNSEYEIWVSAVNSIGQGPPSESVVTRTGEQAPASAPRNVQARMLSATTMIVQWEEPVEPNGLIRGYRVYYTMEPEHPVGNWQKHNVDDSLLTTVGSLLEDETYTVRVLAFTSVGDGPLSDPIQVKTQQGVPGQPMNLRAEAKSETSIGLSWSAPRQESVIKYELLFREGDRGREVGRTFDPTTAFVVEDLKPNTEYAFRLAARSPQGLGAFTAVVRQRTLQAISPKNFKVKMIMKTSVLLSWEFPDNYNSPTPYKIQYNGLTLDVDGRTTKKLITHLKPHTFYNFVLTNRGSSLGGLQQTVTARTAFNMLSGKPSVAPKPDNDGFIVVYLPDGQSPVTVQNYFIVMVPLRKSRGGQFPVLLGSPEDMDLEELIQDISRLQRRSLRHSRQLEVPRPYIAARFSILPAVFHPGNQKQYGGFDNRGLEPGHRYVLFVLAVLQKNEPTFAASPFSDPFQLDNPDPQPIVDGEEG


Assays:
[1] = molecular target: RPTPσ on mouse dorsal root ganglion (DRG) neurons (mouse) (UniProt B0V2N1); assay: cell-based or functional assay
[2] = molecular target: Mouse RPTPσ sEcto-Fc (mouse) (UniProt B0V2N1); assay: solid phase binding assay, immobilised mouse RPTPσ sEcto-Fc, bound AP activity; Kd from the binding curve, one-to-one binding assumed; Scatchard inset
mouse RPTPσ sEcto-Fc = molecular target: T1, mouse RPTPσ sEcto-Fc; assay: Solid phase binding assay: proteoglycan-AP fusion proteins on immobilised RPTPσ sEcto-Fc; conditions: neurocan pre-treated with chondroitinase ABC; glypican-2 pre-treated with heparitinase III
Description: Analysis of binding between RPTPσ sEcto-Fc and Glypican-2 or Neurocan alkaline phosphate (AP) fusion proteins was performed as described previously (S2, S26). All fusion proteins were produced in transiently transfected 293T cells. Briefly, the RPTPσ Fc-fusion protein was immobilised on 96-well Reactibind Protein A-coated plates (Pierce) and incubated with soluble proteoglycan-AP proteins which had been normalized for equal input AP activity. AP activity was determined by measuring substrate turnover on a microplate reader as described (S27, S28). […] In FIG. 23, the binding between RPTPσ-Fc and heparin-derived size-fractionated oligosaccharides with different lengths (HS6, HS8, HS10, HS17, HS23, HS30 and HS67, corresponding to hexasaccharide, octasaccharide, decasaccharide, or approximately 17, 23, 30 and 67 saccharide units; molecular weights 1,800 Da, 3,000 Da, 5,000 Da, 7,000 Da, 9,000 Da, and 20,000 Da; Neoparin) was analyzed with RPTPσ-Fc immobilised on 96-well Reactibind Protein A-coated plates (Pierce) and incubated with soluble biotinalated HS. The bound HS was quantified by AP enzyme activity following incubation with streptavidin-AP (Promega). […]

[3] = tested on: wild-type mouse DRG neurons; assay: DRG neurite outgrowth assay (GAP-43 immunostaining, total neurite outgrowth); type: cell-based; conditions: for effect on neurite outgrowth of wild-type neurons: poly-D-lysine/laminin supplemented with neurocan 5 μg/ml or glypican-2 30 μg/ml
Description: (§1) DRGs of P8-12 RPTPσ^+/+ or RPTPσ^−/− mice were cut off from all roots. Neurons were dissociated and subjected to neurite outgrowth assays and analysis as described previously (S2). For experiments in FIG. 1, recombinant mouse Neurocan (5800-NC, R&D Systems) was used at 5 μg/ml and recombinant mouse Glypican-2 (2355-GP, R&D Systems) at 30 μg/ml. In FIG. 5, 30 μg/ml of Glypican-2 was pre-incubated with 1 unit/ml of Heparitinase III (HPNIII, H8891, Sigma) at 37° C. for 4 hrs where indicated, prior to use in outgrowth assays. For experiments in FIG. 19, recombinant mouse glypican-2 was used at 5 μg/ml, and Chondroitin Sulfate Proteoglycan mixture (CSPG, CC117, Millipore) was at 125 μg/ml. For experiments in FIGS. 24 and 25, Chondroitin Sulfate Proteoglycan mixture (CSPG, CC117, Millipore) was at 60 μg/ml, with or without the addition of HS at indicated length and concentration (1 μM for all HS in […]). Proteoglycans and heparin oligosaccharides were added to neuronal cultures 30 min after seeding and were replenished 24 hrs later. At 48 hrs after seeding, cells were fixed and immunostained with anti-GAP43 antibody (NB300-143, Novus). The whole of each well was scanned with a fluorescence microscope and the images were then analyzed for total neurite outgrowth using the Metamorph program.

[4] = tested on: RPTPσ−/− P8 mouse DRG neurons; assay: DRG neurite outgrowth assay in RPTPσ−/− neurons; type: cell-based; conditions: neurocan 5 μg/ml or glypican-2 30 μg/ml; 48 hours
Description: as §1

Chain of Neurocan-alkaline phosphatase (P55066 23-1268): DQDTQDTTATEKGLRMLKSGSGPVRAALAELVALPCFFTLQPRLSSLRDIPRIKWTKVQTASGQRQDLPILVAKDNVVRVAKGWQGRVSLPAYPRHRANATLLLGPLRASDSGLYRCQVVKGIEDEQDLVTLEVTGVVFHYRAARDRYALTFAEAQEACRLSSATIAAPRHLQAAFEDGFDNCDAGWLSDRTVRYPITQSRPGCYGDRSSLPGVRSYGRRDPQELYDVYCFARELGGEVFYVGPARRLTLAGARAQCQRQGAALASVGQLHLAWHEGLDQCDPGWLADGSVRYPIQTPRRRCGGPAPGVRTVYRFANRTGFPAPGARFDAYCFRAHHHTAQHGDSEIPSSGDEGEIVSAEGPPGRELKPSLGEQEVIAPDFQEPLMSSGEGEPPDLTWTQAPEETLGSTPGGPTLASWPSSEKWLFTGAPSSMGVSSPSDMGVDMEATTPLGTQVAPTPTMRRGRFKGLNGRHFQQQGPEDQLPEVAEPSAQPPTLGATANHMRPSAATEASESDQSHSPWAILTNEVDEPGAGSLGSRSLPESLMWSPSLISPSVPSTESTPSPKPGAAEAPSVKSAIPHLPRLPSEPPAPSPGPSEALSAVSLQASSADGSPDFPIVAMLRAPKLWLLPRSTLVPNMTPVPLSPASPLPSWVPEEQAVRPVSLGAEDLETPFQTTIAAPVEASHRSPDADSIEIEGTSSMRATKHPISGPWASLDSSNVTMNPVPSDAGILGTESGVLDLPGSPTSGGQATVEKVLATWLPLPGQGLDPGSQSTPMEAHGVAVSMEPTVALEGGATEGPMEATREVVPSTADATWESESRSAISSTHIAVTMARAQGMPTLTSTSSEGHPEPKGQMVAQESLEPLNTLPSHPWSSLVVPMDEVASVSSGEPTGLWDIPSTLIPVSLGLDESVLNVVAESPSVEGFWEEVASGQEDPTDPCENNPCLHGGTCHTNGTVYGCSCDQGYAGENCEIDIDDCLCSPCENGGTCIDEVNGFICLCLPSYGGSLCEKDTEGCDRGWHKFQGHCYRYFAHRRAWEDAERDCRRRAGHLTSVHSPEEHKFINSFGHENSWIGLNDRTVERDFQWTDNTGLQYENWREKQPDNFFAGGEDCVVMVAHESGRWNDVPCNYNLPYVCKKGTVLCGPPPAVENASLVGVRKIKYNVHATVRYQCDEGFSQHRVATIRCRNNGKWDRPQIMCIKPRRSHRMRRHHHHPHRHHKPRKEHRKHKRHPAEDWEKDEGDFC

binding to RPTPσ after enzymatic removal of GAG chains (mouse RPTPσ sEcto-Fc)	Molecule	effect on neurite outgrowth of wild-type neurons ([3]; 48 hours)	effect on neurite outgrowth of RPTPσ−/− neurons compared with wild-type [4]	also measured
–	recombinant mouse Neurocan (5800-NC, R&D Systems) (from UniProt P55066 23-637)	–	–	decrease in outgrowth of wild-type DRG neurons (neurite outgrowth assay) [1]: 60%
–	Neurocan-alkaline phosphatase	–	–	Kd [2]: 21.2 nM
dramatically reduced binding	glypican-2: a representative HSPG; Glypican2-AP fusion in binding assays, recombinant mouse Glypican-2 (2355-GP, R&D Systems) in outgrowth assays (protein) HGSEAKVVRSCAETRQVLGARGYSLNLIPPSLISGEHLQVCPQEYTCCSSETEQKLIRDAEVTFRGLVEDSGSFLIHTLAARHRKFNEFFREMLSISQHSLAQLFSHSYGRLYSQHAVIFNSLFSGLRDYYEKSGEGLDDTLADFWAQLLERAFPLLHPQYSFPPDFLLCLTRLTSTADGSLQPFGDSPRRLRLQISRALVAARALVQGLETGRNVVSEALKVPVLEGCRQALMRLIGCPLCRGVPSLMPCRGFCLNVAHGCLSSRGLEPEWGGYLDGLLLLAEKLQGPFSFELAAESIGVKISEGLMHLQENSVKVSAKVFQECGTPHPVQSRSRRAPAPREEASRSWRASAEEERPTTAAGTNLHRLVWELRERLSRVRGFWAGLPVTVCGDSRMAADLSQETAPCWTGVGRGRYMSPVVVGSLNEQLHNPELDTSSPDVPTRRRRLHLRAATARMKAAALGQDLDMHDADEDASGSGGGQQYADDWKAGAVPVVPPARPPRPPRPPRRDGLGVRGGSGSARYNQGRSRNLGS	strongly promoted outgrowth; also recorded: promotion of outgrowth	reduced to undetectable levels	neurite outgrowth relative to control at lower concentration ([3]; glypican-2 5 μg/ml, wild-type P10 DRG neurons (FIG. 19)): promoted outgrowth to a lesser extent; growth-promoting effect after heparitinase III treatment ([3]; glypican-2 30 μg/ml pre-incubated with 1 unit/ml HPNIII): significantly reduced its growth-promoting ability; also recorded: did not completely eliminate the growth promoting effect
dramatically reduced binding	neurocan: a representative CSPG; Neurocan-AP fusion in binding assays, recombinant mouse Neurocan (5800-NC, R&D Systems) in outgrowth assays (protein) DQDTQDTTATEKGLRMLKSGSGPVRAALAELVALPCFFTLQPRLSSLRDIPRIKWTKVQTASGQRQDLPILVAKDNVVRVAKGWQGRVSLPAYPRHRANATLLLGPLRASDSGLYRCQVVKGIEDEQDLVTLEVTGVVFHYRAARDRYALTFAEAQEACRLSSATIAAPRHLQAAFEDGFDNCDAGWLSDRTVRYPITQSRPGCYGDRSSLPGVRSYGRRDPQELYDVYCFARELGGEVFYVGPARRLTLAGARAQCQRQGAALASVGQLHLAWHEGLDQCDPGWLADGSVRYPIQTPRRRCGGPAPGVRTVYRFANRTGFPAPGARFDAYCFRAHHHTAQHGDSEIPSSGDEGEIVSAEGPPGRELKPSLGEQEVIAPDFQEPLMSSGEGEPPDLTWTQAPEETLGSTPGGPTLASWPSSEKWLFTGAPSSMGVSSPSDMGVDMEATTPLGTQVAPTPTMRRGRFKGLNGRHFQQQGPEDQLPEVAEPSAQPPTLGATANHMRPSAATEASESDQSHSPWAILTNEVDEPGAGSLGSRSLPESLMWSPSLISPSVPSTESTPSPKPGAAEAPSVKSAIPHLPRLPSEPPAPSPGPSEALSAVSLQASSADGSPD	inhibition	inhibitory effect was decreased	reduction of neurite outgrowth ([3]; wild-type DRG neurons, neurocan 5 μg/ml, 48 hours): approximately 60%
